Test results published in patent publication US7749968B2, “Peptides for targeting the prostate specific membrane antigen” (The Johns Hopkins University, priority 2002, dated 2010).

Columns and labels:
xPSM [1] = molecular target: T1, xPSM (Homo sapiens, UniProt Q04609); assay: Final phage display round on xPSM bound to microtiter plates; type: binding
T1 construct: Purified human xPSM (the extracellular portion of human PSMA); S-tag (cleaved yes); made in house; host or cells: Sf-9 insect cells infected with recombinant baculovirus; released from S-protein agarose by enterokinase
T1 sequence (Q04609 44-750 limits assumed): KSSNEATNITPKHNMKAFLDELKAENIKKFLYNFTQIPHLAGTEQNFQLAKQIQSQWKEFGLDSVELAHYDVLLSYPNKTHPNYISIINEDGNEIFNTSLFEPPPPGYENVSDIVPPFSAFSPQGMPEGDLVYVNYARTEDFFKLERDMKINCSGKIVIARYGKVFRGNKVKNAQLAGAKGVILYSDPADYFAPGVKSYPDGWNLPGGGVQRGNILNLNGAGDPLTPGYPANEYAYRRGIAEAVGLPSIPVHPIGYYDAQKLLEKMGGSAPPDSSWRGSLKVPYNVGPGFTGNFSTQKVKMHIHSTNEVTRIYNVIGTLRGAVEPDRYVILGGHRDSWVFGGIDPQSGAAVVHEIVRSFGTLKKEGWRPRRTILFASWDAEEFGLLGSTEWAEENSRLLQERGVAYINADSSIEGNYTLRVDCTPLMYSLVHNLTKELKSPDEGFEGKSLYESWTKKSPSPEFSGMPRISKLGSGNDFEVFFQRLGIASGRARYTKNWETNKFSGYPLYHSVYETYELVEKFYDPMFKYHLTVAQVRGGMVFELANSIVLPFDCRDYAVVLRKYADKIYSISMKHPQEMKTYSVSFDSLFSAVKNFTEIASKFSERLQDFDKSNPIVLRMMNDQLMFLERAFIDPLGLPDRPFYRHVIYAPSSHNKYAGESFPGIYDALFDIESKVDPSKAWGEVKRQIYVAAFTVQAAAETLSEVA
From the text: In addition to phage library partitioning by cell binding, a final round of binding was completed on xPSM (Tag-xPSM digested with enterokinase) bound to plastic microtiter plates. This final round was used to ensure that those peptides identified in the LNCaP screen were targeting PSMA and not another unknown surface protein.
Multiple individual phage from rounds three of LNCaP binding and the final round of xPSM binding were isolated, amplified, and sequenced. […] Two sequences are highly represented and are found in both cell and purified protein backgrounds.

xPSM [2] = molecular target: T1, xPSM; assay: NAAG hydrolysis (NAALADase) assay with purified xPSM; type: biochemical; conditions: 1, 10 and 100 micromolar; 30 nM NAAG substrate, 37° C., 10 minutes
From the text: In another embodiment, the peptide compounds of the invention specifically enhance the enzymatic activity of PSMA. In another embodiment, peptide compounds of the invention may inhibit PSMA activity. Accordingly, the invention provides a method for assaying peptide compounds for the ability to modulate the activity of PSMA. This method is described in detail in Robinson, M. B. et al. (1987) J. Biol. Chem. 262:14498-506, incorporated herein by reference, as well as in Example 6 herein. Purified human xPSM (the extracellular portion of human PSMA) is incubated with a radiolabeled substrate, N-acetyl-L-aspartyl-L-[3,4-^3H]glutamate, plus the peptide compound being tested. Hydrolyzed substrate is then separated from intact substrate (e.g., by anion exchange chromatography) and quantitated to determine whether the test peptide compound was able to modulate PSMA activity.
N-acetyl-aspartyl-glutamate (NAAG) hydrolysis was performed essentially as previously described (Robinson, M. B. et al. (1987) J. Biol. Chem. 262:14498-506, incorporated herein by reference). In short, 65 ng purified xPSM was resuspended in NAALADase Buffer (50 mM Tris, pH 7.4, 0.5% Triton X-100) and incubated in the presence of peptides or inhibitors (1, 10, and 100 micromolar), along with the radiolabeled substrate N-acetyl-L-aspartyl-L-[3,4-^3H]glutamate (NEN Life Science Products, Boston, Mass.) at 30 nM. Reactions were run at 37° C. for 10 minutes. The reaction was then stopped by the addition of an equal volume of ice-cold 100 mM sodium phosphate, 2 mM EDTA. Products were separated from intact substrate using AG 1-X8 Formate resin (BioRad Laboratories, Hercules, Calif.) anion exchange chromatography. The reaction product, tritiated-glutamate, was eluted with 1M sodium formate and quantitated by scintillation counting. Intact NAAG remained in the column resin. Experiments were completed in triplicate and have been repeated. The data represents six data points from two experiments. Experiments were designed to allow 20% or less of the total substrate to be cleaved.

Tag-xPSM [3] = molecular target: T2, Tag-xPSM (Homo sapiens, UniProt Q04609); assay: Tag-xPSM phage display selection (agarose/cellulose), sequencing of selected phage; type: binding
T2 construct: made in house; host or cells: Sf-9 insect cells infected with recombinant baculovirus; protein harvested from the media
T2 sequence (Q04609 44-750 limits assumed): as above
Description: 100 μl of S-protein agarose (2× in RPMI 1640+1% Fetal Bovine Serum (FBS) and 100 μl of CBind Resin (10 mg/ml in RPMI 1640+1% FBS) without fusion protein were used to negatively select the original phage display library. 2×10^11 plaque forming units (PFU) of 1.29×10^9 different sequence phage were incubated with each aliquot of resin for 1 hr at 37° C., while rotating. The S-tag agarose was pelleted and supernatant saved as the agarose counter-selected pool. The cellulose resin was transferred onto 200 μl of 9:1 dibutyl phthalate:cyclohexane and the resin pelleted through the organic phase. The aqueous supernatant was saved as the cellulose counter-selected pool. Each counter selected pool was then added to tag-xPSM agarose or cellulose resin and incubated for 1 hr at 37° C., while rotating. The tag-xPSM agarose was pelleted and washed three times in RPMI 1640+1% FBS. The agarose pellet was then saved for phage isolation. The Tag-xPSM cellulose was transferred onto 200 μl of 9:1 dibutyl phthalate:cyclohexane and the resin pelleted through the organic phase. The tube was then snap frozen in liquid nitrogen to isolate the resin pellet. Over 75% of Tag-xPSM remained bound to the cellulose resin through these conditions. The resulting phage-bound tag-xPSM agarose and tag-xPSM cellulose were then resuspended in 200 μl of log phage ER2738 cells and phage allowed to infect 1 hour at room temperature. A small aliquot was taken at this time to quantitate the number of phage bound per round of selection. The remaining PSMA bound phage was then amplified, tittered, and applied to the next round of phage display. There was only one counter-selection round, followed by a total of five positive selection rounds, applying between 10^10 to 10^11 PFU per round. The final round of selection included cross-selections, where selected phage pools from one PSMA background where applied to the other. Individual phage were isolated and sequenced from rounds three through five.
Individual phage plaques were amplified for 5 hours in ER2738 cells at 37° C. Amplified supernatant was incubated 1:1 with PEG/NaCl buffer (20% PEG 8000, 2.5 M NaCl) for 10 minutes at room temperature. Phage were microfuged 10 minutes at 20,000 g, 4° C. The phage pellet was suspended in 100 μl Iodide buffer (10 mM Tris-HCl, pH 8.0, 1 mM EDTA, 4M NaI). Single stranded DNA (ssDNA) was precipitated with 250 μl of 100% ethanol, pelleted, and washed in 70% ethanol. Each ssDNA pellet was suspended in 30 μl 10 mM Tris, pH 7.4. Each phage was sequenced using the Amersham DYE ET mix, by incubating 6 μl ssDNA, 1 μl of 5 μM-96 pill Sequencing Primer ([…]; SEQ ID NO:108), and 8 μl of DYE ET mix in a 96 well PCR plate and amplified by 30 cycles of 95° C. for 20 seconds, 50° C. for 15 seconds, and 60° C. for 1 minute. Sequencing reaction products were spun through G50-fine Sephadex column plates, prepared on Millipore-multiscreen plates. Products were sequenced and analyzed on the MegaBACE capillary sequencer. All sequences, minus the flanking cysteines, were aligned using the Baylor College of Medicine Clustal W1.8 Global Progressive Alignment (available online) with data presented by Boxshade 3.21 software (available online through the Swiss Institute for Bioinformatics).
2×10^11 plaque-forming units (PFU) of the library was incubated with each aliquot of resin for one hour at 37° C., while rotating. The S-tag agarose was pelleted and the supernatant saved as the agarose counter-selected pool. The cellulose resin was transferred onto a 9:1 ratio of dibutyl phthalate:cyclohexane and the resin centrifuged through the organic phase. The aqueous supernatant was saved as the cellulose counter-selected pool. Each counter selected pool was then added to tag-xPSM agarose or cellulose resin, respectively, and incubated for one hour at 37° C., while rotating (see FIG. 2). The Tag-xPSM agarose was pelleted, washed, and saved for phage isolation. […]

Tag-xPSM [4] = molecular target: T2, Tag-xPSM; assay: Stringent Tag-xPSM phage display, round 4 acid elution pool; type: binding; conditions: pH 2.2 pool
Description: As described above in Example 1, Tag-xPSM was used as a target for the in vitro selection of a commercially available cysteine-constrained heptapeptide phage library. For the initial round, 14 micrograms of S-protein-agarose immobilized Tag-xPSM was incubated with 2×10^11 PFU for 30 minutes at room temperature while rotating. Weakly bound phage were then washed off with three 5 minute rotating washes. One phage pool, referred to herein as the “pH 2.2 pool”, was eluted for ten minutes in pH 2.2 glycine buffer followed by neutralization in Tris buffer. Those phage still bound to Tag-xPSM were then eluted for one hour in 30 mM EDTA-Tris buffer. This pool is referred to herein as the “EDTA pool”. These two pools where then carried separately for the next three rounds. Stringency was increased in each round by changing Tag-xPSM substrate background, decreasing binding time, or increasing washing time (Table 3).
Twelve individual phage from each elution condition for rounds two, three, and four of Tag-xPSM phage display were isolated, amplified, and sequenced. All clones sequenced from rounds 2 and 3 were unique (Tables 4 and 5).

CLAAPTGKC [SEQ ID NO:30]
Number of times sequence was found, Round 1 xPSM (xPSM [1]): 12

CTNPNMHHC [SEQ ID NO:35]
Number of times sequence was found, Round 1 xPSM (xPSM [1]): 0

N[C@@H](Cn1oc(=O)[nH]c1=O)C(=O)O [quisqualic acid, reference compound]
Effect on PSMA enzymatic activity (xPSM [2]): inhibited

CTLVPHTRC [SEQ ID NO:3]
Effect on PSMA enzymatic activity (xPSM [2]): enhanced
Number of times sequence was found, Round 3 (Tag-xPSM [3]; Agarose): 0/0
Number of times sequence was found, Round 4 (Tag-xPSM [3]; Agarose): 13/13
Number of times sequence was found, Round 5 (Tag-xPSM [3]; Agarose): 0
Number of times sequence was found, Round 3 (Tag-xPSM [3]; Cellulose): 0/0
Number of times sequence was found, Round 4 (Tag-xPSM [3]; Cellulose): 13/13
Number of times sequence was found, Round 5 (Tag-xPSM [3]; Cellulose): 2

CTYNPSRWC [SEQ ID NO:29]
Number of times sequence was found, Round 1 xPSM (xPSM [1]): 7

CPQPASRQC [SEQ ID NO:36]
Number of times sequence was found, Round 1 xPSM (xPSM [1]): 1

CQKHHNYLC [SEQ ID NO:1]
Effect on PSMA enzymatic activity (xPSM [2]): enhanced
Number of times sequence was found, Round 3 (Tag-xPSM [3]; Agarose): 0/0
Number of times sequence was found, Round 4 (Tag-xPSM [3]; Agarose): 0/0
Number of times sequence was found, Round 5 (Tag-xPSM [3]; Agarose): 0
Number of times sequence was found, Round 3 (Tag-xPSM [3]; Cellulose): 0/0
Number of times sequence was found, Round 4 (Tag-xPSM [3]; Cellulose): 0/0
Number of times sequence was found, Round 5 (Tag-xPSM [3]; asterisk: cross-selected, agarose pool selected on cellulose (final resin)): 12

CKSGEVNYC [SEQ ID NO:34]
Number of times sequence was found, Round 1 xPSM (xPSM [1]): 0

CLNTAPLAC [SEQ ID NO:60]
Share of the round 4 acid elution pool (Tag-xPSM [4]): 83%

CNKAALGTC [SEQ ID NO:31]
Number of times sequence was found, Round 1 xPSM (xPSM [1]): 1

CGSAARNWC [SEQ ID NO:32]
Number of times sequence was found, Round 1 xPSM (xPSM [1]): 0

CERNTYRFC [SEQ ID NO:33]
Number of times sequence was found, Round 1 xPSM (xPSM [1]): 0

CSHNDTRHC [SEQ ID NO:4]
Number of times sequence was found, Round 3 (Tag-xPSM [3]; Agarose): 0/0
Number of times sequence was found, Round 4 (Tag-xPSM [3]; Agarose): 0/0
Number of times sequence was found, Round 5 (Tag-xPSM [3]; Agarose): 0
Number of times sequence was found, Round 3 (Tag-xPSM [3]; Cellulose): 0/0
Number of times sequence was found, Round 4 (Tag-xPSM [3]; Cellulose): 0/0
Number of times sequence was found, Round 5 (Tag-xPSM [3]; Cellulose): 1
